One block for each molecule: values may come before it.
Tests used:
human IL-5 receptor = target: T1, human IL-5 receptor (Homo sapiens, UniProt Q01344); details: HL60 subclone, eosinophilic differentiation initiated with sodium butyrate; read-out: Kd of IL-5 binding sites; cited from earlier work
T1 construct: host or cells: subclone of HL60 induced towards eosinophil differentiation with sodium butyrate (endogenous receptor)
T1 sequence (Q01344 21-420): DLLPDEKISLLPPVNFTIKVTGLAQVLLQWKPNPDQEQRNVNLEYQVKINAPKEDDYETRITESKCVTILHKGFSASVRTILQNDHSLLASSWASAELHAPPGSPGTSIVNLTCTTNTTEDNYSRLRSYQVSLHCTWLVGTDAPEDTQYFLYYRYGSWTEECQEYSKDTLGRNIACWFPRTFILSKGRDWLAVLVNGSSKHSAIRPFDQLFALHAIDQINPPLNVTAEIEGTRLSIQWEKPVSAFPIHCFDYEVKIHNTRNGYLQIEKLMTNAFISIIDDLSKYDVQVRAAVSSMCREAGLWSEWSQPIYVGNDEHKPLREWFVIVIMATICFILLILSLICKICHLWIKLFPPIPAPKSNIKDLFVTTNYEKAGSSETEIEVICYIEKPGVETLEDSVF
T1 sequence (P32927 17-897 partner): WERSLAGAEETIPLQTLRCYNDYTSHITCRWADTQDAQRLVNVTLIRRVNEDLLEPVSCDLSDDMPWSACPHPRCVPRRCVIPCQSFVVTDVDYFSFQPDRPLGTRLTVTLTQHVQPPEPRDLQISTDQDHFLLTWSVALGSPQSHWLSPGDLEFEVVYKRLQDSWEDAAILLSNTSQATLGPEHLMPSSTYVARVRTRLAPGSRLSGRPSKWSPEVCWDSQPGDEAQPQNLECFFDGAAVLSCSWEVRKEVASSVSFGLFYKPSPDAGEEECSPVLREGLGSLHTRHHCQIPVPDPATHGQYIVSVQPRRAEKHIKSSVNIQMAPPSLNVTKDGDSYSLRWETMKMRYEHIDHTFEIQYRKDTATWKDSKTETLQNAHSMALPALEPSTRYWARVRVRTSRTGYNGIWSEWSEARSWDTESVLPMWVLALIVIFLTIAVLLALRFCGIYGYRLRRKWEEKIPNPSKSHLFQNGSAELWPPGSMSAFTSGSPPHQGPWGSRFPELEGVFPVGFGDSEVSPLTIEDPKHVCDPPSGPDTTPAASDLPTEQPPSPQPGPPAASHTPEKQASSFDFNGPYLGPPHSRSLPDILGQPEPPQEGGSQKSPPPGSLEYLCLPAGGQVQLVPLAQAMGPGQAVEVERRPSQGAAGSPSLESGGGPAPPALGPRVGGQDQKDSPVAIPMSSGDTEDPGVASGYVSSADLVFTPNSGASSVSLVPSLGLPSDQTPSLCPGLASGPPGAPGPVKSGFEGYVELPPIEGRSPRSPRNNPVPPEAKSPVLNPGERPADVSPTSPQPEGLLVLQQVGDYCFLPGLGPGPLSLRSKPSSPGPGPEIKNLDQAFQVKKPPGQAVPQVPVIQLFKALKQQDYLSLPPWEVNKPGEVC

[1] = target: extracellular domain (ECD) of the IL-5 receptor α chain, soluble (human) (UniProt Q01344); test: competition with [125I] IL-5 on immobilised soluble IL-5Rα; grade ++ = IC50 of 500 nm or less

Molecule: IL-5: lymphokine secreted by T cells and mast cells having biological activities on B cells and eosinophils
Kd (human IL-5 receptor): 0.03 nM

B3: peptide … (SEQ ID NO:8) (peptide)
peptide: DGYVCVEWARCPMCT
IC50 [1]: < 500 nM

The remaining lines, values ahead:

IC50 [1]: < 500 nM
B1: peptide … (SEQ ID NO:9) (peptide)
peptide: DGFVCVEWARCPNCR

IC50 [1]: < 500 nM
B2: peptide … (SEQ ID NO:7) (peptide)
peptide: DGYVCVEWARCPTCK

Reference: patent US5677280A, “Peptides and compounds that bind to the IL-5 receptor” (Glaxo Group Limited, priority 1995, dated 1997)
